Laboratory results taken from patent US20070110756A1, “Method for modulating P53 activity via methylation” (priority 2005, published 2007).

T1: Set9 construct composed of residues 52-366 (UniProt Q8WTS6 52-366)
T1 sequence (looked up): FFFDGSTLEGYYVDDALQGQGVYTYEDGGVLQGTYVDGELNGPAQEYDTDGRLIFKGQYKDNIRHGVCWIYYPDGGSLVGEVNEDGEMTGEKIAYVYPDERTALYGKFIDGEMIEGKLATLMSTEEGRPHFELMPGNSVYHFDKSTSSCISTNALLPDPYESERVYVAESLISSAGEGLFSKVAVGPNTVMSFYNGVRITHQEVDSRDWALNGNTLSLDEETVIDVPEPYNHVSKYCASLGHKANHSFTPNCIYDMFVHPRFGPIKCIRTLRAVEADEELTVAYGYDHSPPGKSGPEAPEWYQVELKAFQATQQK

B1: 5′-gat ccg cac ctg gac gat gac gga tta cct tcc tgt caG TAATCCGTCATCGTCCAGGTG Ctt ttt g-3′ (nucleic acid)
chain: GATCCGCACCTGGACGATGACGGATTACCTTCCTGTCAGTAATCCGTCATCGTCCAGGTGCTTTTTG
modifications: expressed or natural sequence
notes: stem-loop siRNA targeting SET9, expressed from lentiviral pLSL-GFP vector

What was measured:
[1] = test system: methylated Lys372-p53 in 293F cells; assay: immunoprecipitation with anti-p53-Lys372me and p53 western blot in 293F cells; type: cell-based; conditions: Adr-treated vs untreated
Experimental: The in vivo methylation of p53 at lysine 372 under conditions in which the intracellular concentration of Set9 was unaltered was also determined. 293F cells were treated with adriamycine (Adr), an agent that induces DNA damage resulting in the activation of a p53-responsive pathway. Cell extracts prepared from untreated and Adr-treated cells were then compared for total amounts of p53 protein using monoclonal p53 antibody. […] Both extracts were also subjected to immunoprecipitation with anti-p53-Lys372me antibodies followed by western blot analysis with p53-specific antibody.

[2] = test system: U2OS cells; assay: Annexin V apoptotic staining after DNA damage; type: cell-based
Excerpt: This was directly tested by measuring the p53-dependent apoptotic response induced by DNA damage. […] The treatment of Set9-overexpressing cells with Adr further increased the Annexin V staining. […] Furthermore, Set9-mediated regulation of cell cycle and apoptosis was p53-dependent, because in the absence of p53, transfected Set9 was unable to induce p21 gene expression in H1299 (FIG. 4) or apoptosis in Saos-2 cells in response to DNA damage.

[3] = test system: methylated p53 bound to the p21 promoter in U2OS cells; assay: ChIP assay of methylated p53 at the p21 promoter; type: cell-based; conditions: 0.5 μM of Adr, time course
Experimental: U2OS and USOS Set9 siRNA cells were treated with 0.5 μM of Adr and collected at the indicated time points for a CHIP assay performed using anti-p53-Lys372me antibody. The amounts of precipitated p21 promoter were determined by quantitative RT-PCR.
It was observed that p53 methylation likely precedes acetylation. Therefore, it was expected that p53 methylation must occur at very early times after DNA damage. […] At the indicated time periods, cells were harvested, and DNA-protein complexes were cross-linked and subjected to chromatin immunoprecipitation (ChIP) analysis, initially using anti-p53-Lys372me antibodies. To increase the specificity of ChIP, the anti-p53-Lys372me immunoprecipitates were eluted from the beads with 1% SDS, diluted with immunoprecipitation buffer and then subjected to a second round of immunoprecipitation using anti-p53 antibody.
ChIP assay on U2OS and U2OS cells expressing siRNA-Set9 was performed using established methods (Barlev, et al. (2001) supra). Briefly, cells were cross-linked with 1% formaldehyde, neutralized with 0.125 M glycine and harvested by scraping. The chromatin fraction was prepared by incubating the cells in lysis buffer (10 mM Tris pH 8.0, 200 mM NaCl, 10 mM EDTA, 0.5 mM EGTA, 1 mM PMSF). The insoluble fraction was sonicated and subjected to immunoprecipitation with anti-p53-Lys372me serum. […]

[4] = test system: p53 in U2OS cells; assay: p53 Lys372 methylation and total p53 levels in U2OS cells; type: cell-based
[5] = test system: p21 gene expression in U2OS cells; assay: p21 gene expression by quantitative real-time PCR; type: cell-based, human; conditions: normalized to GAPDH
Experimental: U2OS cells were stably transfected with FLAG-Set9 wild-type, FLAG-Set9 mutant or siRNA against Set9. Non-transfected cells served as control. Cells were mock-treated, or treated with 0.3 μM of 5-fluoro-uracil (5-FU) or adriamycine (Adr) as indicated. p21 (FIG. 3A), BAX (FIG. 3B) and MDM2 (FIG. 3C) gene expression was analyzed by quantitative real-time PCR using primers specific for the coding region. Shown are the relative values normalized to GAPDH signal.
Total RNA was extracted using the TRI reagent (INVITROGEN) according to the manufacturer's instructions. First-strand complementary DNA was synthesized using READY-TO-GO You-Prime First-Strand Beads (Amersham Biosciences, Piscataway, N.J.).
Real-time PCR was performed with the DNA ENGINE OPTICON 2 System (MJ Research, Waltham, Mass.) according to the manufacturer's instructions. The primers for human p21 (Cip1/WAF1′) and GAPDH (GENBANK accession numbers NM_000389 and NP_002037, respectively) were designed using the Primer3 program. […] Fluorescence was measured at the end of the elongation phase at 79° C. Expression levels were calculated as a ratio between p21 and GAPDH signals. […]

[6] = target: T1, Set9 construct composed of residues …; assay: cell-based or functional assay

Molecule | intracellular concentration of methylated Lys372-p53 protein [1] | levels of intracellular p53 ([1]; monoclonal p53 antibody) | number of cells positively stained for Annexin V [2] | amount of methylated p53 bound to the p21 promoter [3] | total levels of p53 [4] | Lys372 methylation of p53 ([4]; upon Adr treatment) | p21 expression upon DNA damage [5] | enzymatic activity, methyltransferase assays with 3H-labeled S-adenosyl-L-methionine (AdoMet) [6] [fold]
COc1cccc2c1C(=O)c1c(O)c3c(c(O)c1C2=O)C[C@@](O)(C(=O)CO)C[C@@H]3O[C@H]1C[C@H](N)[C@H](O)[C@H](C)O1 [Adr, adriamycine] | increased the intracellular concentration of methylated Lys372-p53 protein | did not increase the levels of intracellular p53 | increased the number of cells positively stained for Annexin V | increased as early as 1.5 hours after DNA damage |  |  |  | 
B1 |  |  |  | did not exhibit a significant increase in methylated p53 at the p21 promoter | decreased the total levels of p53 | decreased Lys372 methylation of p53 | impaired p21 expression upon DNA damage | 
LKSKKGQSTSRHKKLMFKTY [wild-type p53 20-mer] |  |  |  |  |  |  |  | 6
